{"source": "patent US11458170B2", "about": "“Pharmaceutical composition comprising erythrocytes encapsulating a PLP-dependent enzyme and, a non-phosphate PLP precursor” (ERYTECH PHARMA, priority 2014, dated 2022)", "origin": "cited, not measured here", "key": {"[1]": {"assay": "not given", "remark": "listed apart in the source"}, "[2]": {"conditions": "in vivo"}}}
{"compound": "rMETase: recombinant methioninase produced in Escherichia coli from the Pseudomonas putida gene (Sun et al.)", "values": [{"measurement": "Plasma activity of the enzyme", "setting": "24 h after IV injection, immunodeficient mice, determined in vitro without adding PLP", "value": "undetectable"}, {"measurement": "Half-life in mice", "setting": "mice", "value": 2, "unit": "h"}, {"measurement": "Treated animals developing anti-rMETase antibodies (IgG, IgM)", "setting": "[1]; macaques", "value": "four out of six"}, {"measurement": "Death after anaphylactic shock", "setting": "[1]; second IV injection 28 days after the first", "value": "death of one of the two animals"}, {"measurement": "Anaphylactic shock after second injection", "setting": "[1]; second IV injection 28 days after the first, six monkeys", "value": "in two monkeys an anaphylactic shock"}]}
{"compound": "Cc1ncc(COP(=O)(O)O)c(C=O)c1O", "note": "[PLP, pyridoxal phosphate]", "values": [{"measurement": "Plasma half-life of free PLP", "setting": "[2]", "value": "about 15 minutes"}]}
